Measurements as given in article PMC11143242 (2024).

B1: hMB621 (antibody, V domains shown)
VH: QVQLVQSGGGVVQPGRSLRLSCVASGFSISTYPLHWVRQAPGKGLEWVAVISHDGRNKYYADSVKGRFSISRDNSKNTVYLQMNSLRVEDTAVYYCARAYPYAFDVWGQGTLVTVSS
VL: EIVLTQSPATLSVSPGETATLSCRASQSVRNDLAWYQQKPGQAPRLLIYGASTRASGIPARFSGSGSGTEFTLTISSLQSEDFAIYYCQQYKDWPPWTFGQGTKVEIK
B2: hMB668 (antibody, V domains shown)
VH: QVQLVQSGAEVKKPGSSVKVSCKSSGGTFSDYAINWVRQAPGQGLEWMGRILPIVGVPNYAQKFQGRVTITADKSSSTAYKEVSGLRSEDTAVYYCARRSGINGHGLDVWGQGTTVIVSS
VL: DIVMTQSPLSLPVTPGEPASISCRSSQSLLNTNGYNYLEWYLHKPGQSPQLLIYLGSHRASGVPDRFSGSGSGTDFTLKISRAEPEDVGVYYCMQTLQTQGYTFGQGTKLEIK

Experiments:
Assay in all cases: SPR
MPXV B6 protein = MPXV B6 protein (monkeypox virus (MPXV))
VARV B7 [1] = biological target: T1, VARV B7 (variola virus (VARV))
VACV B5 [2] = biological target: T2, VACV B5 (vaccinia virus (VACV), UniProt Q01227 18-317)
CPXV CPXV199 [3] = biological target: T3, CPXV CPXV199 (cowpox virus (CPXV))
VARV B7 [4] = biological target: T1, VARV B7; remark: listed apart in the source
VACV B5 [5] = biological target: T2, VACV B5; remark: listed apart in the source
CPXV CPXV199 [6] = biological target: T3, CPXV CPXV199; remark: listed apart in the source

Binder | koff (MPXV B6 protein) [s⁻¹] | koff (VARV B7 [1]) [s⁻¹] | koff (VACV B5 [2]) [s⁻¹] | koff (CPXV CPXV199 [3]) [s⁻¹] | Kd (VARV B7 [4]) [nM] | Kd (VACV B5 [5]) [nM] | Kd (CPXV CPXV199 [6]) [nM]
B1 | 9.7e-05 | 0.00019 | 0.00017 | 0.00011 | 5.1 | 2.8 | 2.6
B2 | 7.8e-05 | 5.5e-05 | 8.2e-05 | 0.00011 | 15.8 | 3.1 | 27.2
